According to patent publication US20230303698A1 (HARBOUR BIOMED SHANGHAI, published 2023):

T1: human OX40 (human, UniProt P43489 29-277)
T1 construct: whole, on cells; Expressed on CHO-K1/hu OX40 cells (GenScript, #M00561); also called CD134; TNFRSF4
T1 sequence (looked up): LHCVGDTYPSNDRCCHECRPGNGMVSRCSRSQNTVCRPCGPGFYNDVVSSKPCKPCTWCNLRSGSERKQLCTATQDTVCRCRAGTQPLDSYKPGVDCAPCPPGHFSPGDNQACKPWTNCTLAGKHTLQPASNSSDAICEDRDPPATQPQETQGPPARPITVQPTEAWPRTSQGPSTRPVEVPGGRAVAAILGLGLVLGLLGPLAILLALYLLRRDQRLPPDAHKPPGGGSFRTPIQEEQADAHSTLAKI

B1: PR000265, anti-PD-L1 91G3H5H3(D54E), hIgG1(N297A) (antibody, V domains shown)
VH: EVQLVESGGGLVQPGGSLRLSCAASGFTFSSYWMSWVRQAPGKGLEWVANIKQEGSEKYYVDSVKGRFTISRDNAKNSLYLQMNSLRAEDTAVYYCARDRAVAGAFDIWGQGTMVTVSS
VL: DIQMTQSPSTLSASVGDRVTVTCRASQSIYIWLAWYQQKPGKAPNLLIYKASSLETGVPSRFSGSGSGTEFTLTISSLQPDDFATYYCQQYYGSSRTFGQGTKVEIKR
notes: Parent monoclonal antibody of the PD-L1 end
B2: PR003549 (bispecific antibody, human IgG1, kappa, L234A L235A)
light: DIQMTQSPSTLSASVGDRVTVTCRASQSIYIWLAWYQQKPGKAPNLLIYKASSLETGVPSRFSGSGSGTEFTLTISSLQPDDFATYYCQQYYGSSRTFGQGTKVEIKRTVAAPSVFIFPPSDEQLKSGTASVVCLLNNFYPREAKVQWKVDNALQSGNSQESVTEQDSKDSTYSLSSTLTLSKADYEKHKVYACEVTHQGLSSPVTKSFNRGEC
heavy: EVQLVESGGGLVQPGGSLRLSCAASGFTFSSYWMSWVRQAPGKGLEWVANIKQEGSEKYYVDSVKGRFTISRDNAKNSLYLQMNSLRAEDTAVYYCARDRAVAGAFDIWGQGTMVTVSSASTKGPSVFPLAPSSKSTSGGTAALGCLVKDYFPEPVTVSWNSGALTSGVHTFPAVLQSSGLYSLSSVVTVPSSSLGTQTYICNVNHKPSNTKVDKKVEPKSCDKTHTCPPCPAPEAAGGPSVFLFPPKPKDTLMISRTPEVTCVVVDVSHEDPEVKFNWYVDGVEVHNAKTKPREEQYNSTYRVVSVLTVLHQDWLNGKEYKCKVSNKALGAPIEKTISKAKGQPREPQVYTLPPSREEMTKNQVSLTCLVKGFYPSDIAVEWESNGQPENNYKTTPPVLDSDGSFFLYSKLTVDKSRWQQGNVFSCSVMHEALHNHYTQKSLSLSPGEPKSSDKTHTPPPPPRTEVQLLESGGGLVQLGGSLRLSCAASGFTFSRYAMTWVRQAPEKGLEWVSSISGSGDDTYYGDSVKGRFTISRDNSQNTVYLQMNSLRAEDTAVYFCAKEKAGTTGDYYYNVDVWGQGTTVTVSS
notes: Structure 1, IgG-VH tetravalent symmetric; PD-L1 Fab from PR000265, 4-1BB VH from PR001758; linker H1_15-RT; human IgG1 (AAG); also called PD-L1×4-1BB bispecific antibody molecule
B3: PR007163 (bispecific antibody, human IgG1)
light: B2 light
heavy: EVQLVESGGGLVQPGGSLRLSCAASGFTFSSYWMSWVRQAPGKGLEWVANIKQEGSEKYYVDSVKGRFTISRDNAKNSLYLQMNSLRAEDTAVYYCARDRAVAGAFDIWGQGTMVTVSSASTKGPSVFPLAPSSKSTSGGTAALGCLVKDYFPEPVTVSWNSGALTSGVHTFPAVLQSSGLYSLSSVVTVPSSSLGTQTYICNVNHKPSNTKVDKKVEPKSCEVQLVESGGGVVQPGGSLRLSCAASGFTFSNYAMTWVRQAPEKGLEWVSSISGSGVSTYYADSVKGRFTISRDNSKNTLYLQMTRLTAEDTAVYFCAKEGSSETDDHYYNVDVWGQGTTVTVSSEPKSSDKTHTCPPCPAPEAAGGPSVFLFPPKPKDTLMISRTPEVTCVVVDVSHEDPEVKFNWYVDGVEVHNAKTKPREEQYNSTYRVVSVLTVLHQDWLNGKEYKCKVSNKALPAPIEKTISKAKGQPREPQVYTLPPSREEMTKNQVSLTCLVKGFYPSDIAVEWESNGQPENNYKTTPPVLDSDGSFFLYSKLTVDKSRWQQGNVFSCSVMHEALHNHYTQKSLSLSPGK
notes: Structure 4, Fab(CH1)-VH-Fc (Fab-HCAb); PD-L1 Fab from PR000265, 4-1BB VH from PR001760; no first linker, second linker human IgG1 hinge (C220S); human IgG1 (LALA); also called PD-L1×4-1BB bispecific antibody molecule, structure (4)
B4: PR003550 (bispecific antibody, human IgG1, kappa, L234A L235A)
light: B2 light
heavy: EVQLVESGGGLVQPGGSLRLSCAASGFTFSSYWMSWVRQAPGKGLEWVANIKQEGSEKYYVDSVKGRFTISRDNAKNSLYLQMNSLRAEDTAVYYCARDRAVAGAFDIWGQGTMVTVSSASTKGPSVFPLAPSSKSTSGGTAALGCLVKDYFPEPVTVSWNSGALTSGVHTFPAVLQSSGLYSLSSVVTVPSSSLGTQTYICNVNHKPSNTKVDKKVEPKSCDKTHTCPPCPAPEAAGGPSVFLFPPKPKDTLMISRTPEVTCVVVDVSHEDPEVKFNWYVDGVEVHNAKTKPREEQYNSTYRVVSVLTVLHQDWLNGKEYKCKVSNKALGAPIEKTISKAKGQPREPQVYTLPPSREEMTKNQVSLTCLVKGFYPSDIAVEWESNGQPENNYKTTPPVLDSDGSFFLYSKLTVDKSRWQQGNVFSCSVMHEALHNHYTQKSLSLSPGEPKSSDKTHTPPPPPRTEVQLVESGGGVVQPGGSLRLSCAASGFTFSNYAMTWVRQAPEKGLEWVSSISGSGVSTYYADSVKGRFTISRDNSKNTLYLQMTRLTAEDTAVYFCAKEGSSETDDHYYNVDVWGQGTTVTVSS
notes: Structure 1, IgG-VH tetravalent symmetric; PD-L1 Fab from PR000265, 4-1BB VH from PR001760; linker H1_15-RT; human IgG1 (AAG); also called PD-L1×4-1BB bispecific antibody molecule
B5: PR003789 (bispecific antibody, human IgG1, kappa, L234A L235A)
light: B2 light
heavy: EVQLVESGGGLVQPGGSLRLSCAASGFTFSSYWMSWVRQAPGKGLEWVANIKQEGSEKYYVDSVKGRFTISRDNAKNSLYLQMNSLRAEDTAVYYCARDRAVAGAFDIWGQGTMVTVSSASTKGPSVFPLAPSSKSTSGGTAALGCLVKDYFPEPVTVSWNSGALTSGVHTFPAVLQSSGLYSLSSVVTVPSSSLGTQTYICNVNHKPSNTKVDKKVEPKSCDKTHTCPPCPAPEAAGGPSVFLFPPKPKDTLMISRTPEVTCVVVDVSHEDPEVKFNWYVDGVEVHNAKTKPREEQYNSTYRVVSVLTVLHQDWLNGKEYKCKVSNKALGAPIEKTISKAKGQPREPQVYTLPPSREEMTKNQVSLTCLVKGFYPSDIAVEWESNGQPENNYKTTPPVLDSDGSFFLYSKLTVDKSRWQQGNVFSCSVMHEALHNHYTQKSLSLSPGAEPKSSDKTHTPPPPPEVQLLESGGGLVQPGGSLRLSCAASGFTFSSYAMSWVRQAPGKGLEWVSAISGRGGSTFYADSVRGRFTISRDNSKNTLYLQMNSLRAEDTAMYYCVDGTTGTTDVDYWGQGTLVTVSS
notes: Structure 1, IgG-VH; PD-L1 Fab from PR000265, OX40 VH from PR002067; linker H1_15; human IgG1 (AAG); also called PD-L1×OX40 bispecific antibody molecule
B6: PR003551 (bispecific antibody, human IgG1, kappa, L234A L235A)
light: B2 light
heavy: EVQLVESGGGLVQPGGSLRLSCAASGFTFSSYWMSWVRQAPGKGLEWVANIKQEGSEKYYVDSVKGRFTISRDNAKNSLYLQMNSLRAEDTAVYYCARDRAVAGAFDIWGQGTMVTVSSASTKGPSVFPLAPSSKSTSGGTAALGCLVKDYFPEPVTVSWNSGALTSGVHTFPAVLQSSGLYSLSSVVTVPSSSLGTQTYICNVNHKPSNTKVDKKVEPKSCDKTHTCPPCPAPEAAGGPSVFLFPPKPKDTLMISRTPEVTCVVVDVSHEDPEVKFNWYVDGVEVHNAKTKPREEQYNSTYRVVSVLTVLHQDWLNGKEYKCKVSNKALGAPIEKTISKAKGQPREPQVYTLPPSREEMTKNQVSLTCLVKGFYPSDIAVEWESNGQPENNYKTTPPVLDSDGSFFLYSKLTVDKSRWQQGNVFSCSVMHEALHNHYTQKSLSLSPGEPKSSDKTHTPPPPPRTEVQLLESGGGLVQPGGSLRLSCAASGFIFSNFAMTWVRQPPEKGLKWVSSINGSGFNTYYTDSVKGRFTISRDNSRNTLYLQMNRLTAEDTAVYFCAKEGSSETDDHYYNVDVWGQGTTVTVSS
notes: Structure 1, IgG-VH tetravalent symmetric; PD-L1 Fab from PR000265, 4-1BB VH from PR001836; linker H1_15-RT; human IgG (AAG) as printed; also called PD-L1×4-1BB bispecific antibody molecule
B7: PR004270 (bispecific antibody, human IgG1)
chain 1: EVQLVESGGGLVQPGGSLRLSCAASGFTFSSYWMSWVRQAPGKGLEWVANIKQEGSEKYYVDSVKGRFTISRDNAKNSLYLQMNSLRAEDTAVYYCARDRAVAGAFDIWGQGTMVTVSSASTKGPSVFPLAPSSKSTSGGTAALGCLVKDYFPEPVTVSWNSGALTSGVHTFPAVLQSSGLYSLSSVVTVPSSSLGTQTYICNVNHKPSNTKVDKKVEPKSC
chain 2: not shown
notes: Structure 3, Fab(CL)-VH-Fc (Fab-HCAb) tetravalent symmetric; PD-L1 Fab from PR000265, 4-1BB VH from PR001760; L1 H1_15, L2 human IgG1 hinge (C220S); human IgG1 (LALA); also called PD-L1×4-1BB bispecific antibody molecule with the Fab-HCAb symmetric structure
B8: PR007164 (bispecific antibody, human IgG1)
chain 1: B7 chain 1
chain 2: not shown
notes: Structure 3, Fab(CL)-VH-Fc (Fab-HCAb); PD-L1 Fab from PR000265, 4-1BB VH from PR001760; no first linker, second linker human IgG1 hinge (C220S); human IgG1 (LALA); also called PD-L1×4-1BB bispecific antibody molecule, structure (3)
B9: PR002067, anti-OX40 heavy-chain antibody R1026P079E12 (antibody, human IgG1, V domains shown)
VH: EVQLLESGGGLVQPGGSLRLSCAASGFTFSSYAMSWVRQAPGKGLEWVSAISGRGGSTFYADSVRGRFTISRDNSKNTLYLQMNSLRAEDTAMYYCVDGTTGTTDVDYWGQGTLVTVSS
notes: Fully human heavy-chain antibody (HCAb), heavy chain dimer without light chains; also called anti-OX40 HCAb antibody
B10: PR004284 (bispecific antibody, human IgG1, kappa, L234A L235A)
light: DIQMTQSPSSLSASIGDRVTITCRASQSINSYLNWYQQKPGKAPKLLIYTASSLLSGVPSRFSASGSWTDFSLTISSLQPEDFATYYCQQSFSTPYTFGQGTNLEIKRTVAAPSVFIFPPSDEQLKSGTASVVCLLNNFYPREAKVQWKVDNALQSGNSQESVTEQDSKDSTYSLSSTLTLSKADYEKHKVYACEVTHQGLSSPVTKSFNRGEC
heavy: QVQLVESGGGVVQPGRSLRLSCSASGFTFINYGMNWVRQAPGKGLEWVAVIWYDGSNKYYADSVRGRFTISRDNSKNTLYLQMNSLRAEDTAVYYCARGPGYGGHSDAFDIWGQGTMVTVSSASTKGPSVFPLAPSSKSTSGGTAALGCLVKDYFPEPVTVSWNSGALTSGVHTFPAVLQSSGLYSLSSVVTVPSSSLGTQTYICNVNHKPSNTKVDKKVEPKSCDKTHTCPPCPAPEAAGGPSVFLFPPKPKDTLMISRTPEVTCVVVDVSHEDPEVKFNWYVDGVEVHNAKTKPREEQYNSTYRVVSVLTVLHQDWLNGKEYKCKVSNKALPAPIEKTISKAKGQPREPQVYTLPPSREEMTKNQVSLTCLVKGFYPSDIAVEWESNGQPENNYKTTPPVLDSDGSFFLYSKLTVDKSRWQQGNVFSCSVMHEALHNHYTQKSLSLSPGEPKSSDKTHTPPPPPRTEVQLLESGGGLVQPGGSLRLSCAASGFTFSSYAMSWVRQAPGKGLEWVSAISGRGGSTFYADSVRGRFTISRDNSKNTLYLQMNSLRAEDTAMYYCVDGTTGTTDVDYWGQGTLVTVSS
notes: Structure 1, IgG-VH; PSMA Fab from PR001331, OX40 VH from PR002067; linker H1_15-RT; human IgG1 (LALA); also called PSMA×OX40 bispecific antibody molecule
B11: PR003555 (bispecific antibody, human IgG1, kappa, L234A L235A)
light: B10 light
heavy: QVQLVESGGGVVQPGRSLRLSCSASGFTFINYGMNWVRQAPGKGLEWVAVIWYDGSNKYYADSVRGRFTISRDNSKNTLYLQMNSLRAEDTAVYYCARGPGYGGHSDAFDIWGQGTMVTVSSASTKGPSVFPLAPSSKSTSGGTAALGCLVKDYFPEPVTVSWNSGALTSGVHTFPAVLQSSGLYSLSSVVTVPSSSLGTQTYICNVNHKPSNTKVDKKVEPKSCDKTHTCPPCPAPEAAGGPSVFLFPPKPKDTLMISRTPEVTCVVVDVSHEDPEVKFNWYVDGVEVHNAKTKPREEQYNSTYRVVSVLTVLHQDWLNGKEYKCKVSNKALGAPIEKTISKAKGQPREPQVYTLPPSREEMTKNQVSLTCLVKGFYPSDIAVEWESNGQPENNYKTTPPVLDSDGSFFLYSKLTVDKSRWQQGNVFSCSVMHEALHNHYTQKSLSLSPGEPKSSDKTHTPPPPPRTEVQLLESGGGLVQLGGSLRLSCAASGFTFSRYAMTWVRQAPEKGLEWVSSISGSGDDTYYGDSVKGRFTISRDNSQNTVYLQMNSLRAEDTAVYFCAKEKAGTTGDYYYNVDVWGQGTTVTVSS
notes: Structure 1, IgG-VH; PSMA Fab from PR001331, 4-1BB VH from PR001758; linker H1_15-RT; human IgG1 (AAG); also called PSMA×4-1BB bispecific antibody molecule
B12: PR003556 (bispecific antibody, human IgG1, kappa, L234A L235A)
light: B10 light
heavy: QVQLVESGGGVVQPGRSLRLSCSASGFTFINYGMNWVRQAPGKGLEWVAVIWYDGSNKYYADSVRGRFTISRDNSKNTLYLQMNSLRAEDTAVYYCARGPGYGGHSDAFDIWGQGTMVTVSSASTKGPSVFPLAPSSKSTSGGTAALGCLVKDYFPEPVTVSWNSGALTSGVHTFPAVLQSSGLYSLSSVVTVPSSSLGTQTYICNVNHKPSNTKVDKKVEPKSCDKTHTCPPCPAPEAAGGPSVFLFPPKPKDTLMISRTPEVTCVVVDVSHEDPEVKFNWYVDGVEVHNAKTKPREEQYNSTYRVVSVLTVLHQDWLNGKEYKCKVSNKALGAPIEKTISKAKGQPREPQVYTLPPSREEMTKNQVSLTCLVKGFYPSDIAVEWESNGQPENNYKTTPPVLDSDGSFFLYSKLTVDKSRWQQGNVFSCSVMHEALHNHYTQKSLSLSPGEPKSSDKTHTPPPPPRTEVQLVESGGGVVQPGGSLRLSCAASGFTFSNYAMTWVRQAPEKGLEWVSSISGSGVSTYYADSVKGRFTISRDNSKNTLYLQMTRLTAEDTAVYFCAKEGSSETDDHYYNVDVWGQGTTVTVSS
notes: Structure 1, IgG-VH; PSMA Fab from PR001331, 4-1BB VH from PR001760; linker H1_15-RT; human IgG1 (AAG); also called PSMA×4-1BB bispecific antibody molecule
B13: PR003557 (bispecific antibody, human IgG1, kappa, L234A L235A)
light: B10 light
heavy: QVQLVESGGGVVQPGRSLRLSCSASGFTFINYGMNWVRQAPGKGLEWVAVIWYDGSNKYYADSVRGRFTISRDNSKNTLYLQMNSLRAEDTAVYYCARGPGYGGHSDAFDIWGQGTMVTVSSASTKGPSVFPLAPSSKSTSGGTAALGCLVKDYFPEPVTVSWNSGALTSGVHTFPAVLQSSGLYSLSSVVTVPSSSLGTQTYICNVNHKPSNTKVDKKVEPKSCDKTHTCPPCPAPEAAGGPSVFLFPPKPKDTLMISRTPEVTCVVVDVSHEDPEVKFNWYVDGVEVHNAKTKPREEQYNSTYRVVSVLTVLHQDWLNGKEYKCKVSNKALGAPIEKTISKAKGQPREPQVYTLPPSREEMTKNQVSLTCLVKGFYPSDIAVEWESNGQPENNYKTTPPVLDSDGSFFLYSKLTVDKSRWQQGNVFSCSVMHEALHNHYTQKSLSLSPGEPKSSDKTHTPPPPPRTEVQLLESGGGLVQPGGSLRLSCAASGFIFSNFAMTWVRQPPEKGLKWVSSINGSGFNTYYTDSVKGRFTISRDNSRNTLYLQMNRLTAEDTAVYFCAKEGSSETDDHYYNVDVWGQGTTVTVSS
notes: Structure 1, IgG-VH; PSMA Fab from PR001331, 4-1BB VH from PR001836; linker H1_15-RT; human IgG (AAG) as printed; also called PSMA×4-1BB bispecific antibody molecule
B14: PR001331, anti-PSMA monoclonal antibody 2E8A1B1 hIgG1 (antibody, V domains shown)
VH: QVQLVESGGGVVQPGRSLRLSCSASGFTFINYGMNWVRQAPGKGLEWVAVIWYDGSNKYYADSVRGRFTISRDNSKNTLYLQMNSLRAEDTAVYYCARGPGYGGHSDAFDIWGQGTMVTVSS
VL: DIQMTQSPSSLSASIGDRVTITCRASQSINSYLNWYQQKPGKAPKLLIYTASSLLSGVPSRFSASGSWTDFSLTISSLQPEDFATYYCQQSFSTPYTFGQGTNLEIKR
notes: Parent monoclonal antibody of the PSMA end; hIgG1

biological target: T2, human PD-L1 (human, UniProt Q9NZQ7 19-290); assay: flow cytometry, CHO-K1/hPD-L1 cells
T2 construct: whole, on cells; Expressed on CHO-K1/hPD-L1 cells (GenScript, M00543); also called CD274; B7-H1
T2 sequence (Q9NZQ7 19-290): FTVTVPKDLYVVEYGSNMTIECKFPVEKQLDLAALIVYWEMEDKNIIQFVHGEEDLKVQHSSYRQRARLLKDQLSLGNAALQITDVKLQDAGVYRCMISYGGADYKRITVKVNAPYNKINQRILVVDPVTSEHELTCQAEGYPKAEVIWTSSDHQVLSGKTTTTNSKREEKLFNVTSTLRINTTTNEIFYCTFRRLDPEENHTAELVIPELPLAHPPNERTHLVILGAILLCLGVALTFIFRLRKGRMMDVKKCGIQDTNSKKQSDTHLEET

| binding result | Binder |
| --- | --- |
| binds | B1 |
| binds | B2 |
| binds | B3 |
| binds | B4 |
| binds | B5 |
| binds | B6 |
| binds | B7 |
| binds | B8 |

biological target: T1, human OX40; assay: flow cytometry, CHO-K1/hu OX40 cells
Protocol: The antibody binding assay at the cellular level was performed using a CHO-K1 cell line CHO-K1/hu OX40 (GenScript, #M00561) highly expressing human OX40. Briefly, the CHO-K1/hu OX40 cells were digested and resuspended in an F12K complete medium, and the cell density was adjusted to 1×10⁶ cells/mL. […] The cells were incubated at 4° C. for 1 h away from light. Thereafter, the cells in each well were rinsed twice with 100 μL of pre-cooled PBS, and centrifuged at 500 g at 4° C. for 5 min, and then the supernatant was discarded. […] The plate was incubated away from light at 4° C. for 30 min. The cells in each well were rinsed twice with 100 L of pre-cooled PBS, and centrifuged at 500 g at 4° C. for 5 min, and then the supernatant was discarded. Finally, a pre-cooled PBS was added at 200 μL/well to resuspend the cells. Fluorescence signal values were read using a BD FACS CANTOII flow cytometer or an ACEA NovoCyte flow cytometer, and the data were processed and analyzed using FlowJo v10 (FlowJo, LLC) software.

| binding result | Binder |
| --- | --- |
| binds | B9 |
| binds | B10 |
| binds | B5 |

biological target: T3, human 4-1BB (human, UniProt Q07011 24-255); assay: flow cytometry, CHO-K1/hu 4-1BB cells
T3 construct: whole, on cells; Expressed on CHO-K1/hu 4-1BB cells (GenScript, M00538); also called CD137; TNFRSF9
T3 sequence (Q07011 24-255): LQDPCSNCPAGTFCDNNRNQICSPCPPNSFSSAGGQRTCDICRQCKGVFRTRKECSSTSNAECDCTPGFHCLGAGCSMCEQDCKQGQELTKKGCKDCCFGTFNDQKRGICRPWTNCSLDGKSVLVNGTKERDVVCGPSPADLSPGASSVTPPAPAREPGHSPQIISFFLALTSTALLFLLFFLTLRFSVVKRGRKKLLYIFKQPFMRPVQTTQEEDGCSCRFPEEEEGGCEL
Protocol: The binding ability of the binding protein to a CHO-K1 cell line CHO-K1/hu 4-1BB (GenScript, M00538) highly expressing human 4-1BB and a CHO-K1 cell line CHO-K1/cyno 4-1BB (GenScript, M00569) highly expressing cynomolgus monkey 4-1BB were determined by flow cytometry FACS. Specifically, the cells were digested and resuspended in a complete medium, and the cell density was adjusted to 2×10⁶ cells/mL. […] The cells were incubated at 4° C. for 1 h away from light. Then, the cells in each well were rinsed twice with 100 μL of pre-cooled FACS buffer (PBS buffer containing 0.5% BSA) and centrifuged at 500 g at 4° C. for 5 min, and then the supernatant was discarded. […] Then, the cells in each well were then rinsed twice with 200 μL of pre-cooled FACS buffer and centrifuged at 500 g at 4° C. for 5 min, and then the supernatant was discarded. Finally, a pre-cooled FACS buffer was added at 200 μL/well to resuspend the cells. Fluorescence signal values were read using a BD FACS CANTOII flow cytometer or an ACEA NovoCyte flow cytometer, and the data were processed and analyzed using FlowJo v10 (FlowJo, LLC) software.

| binding result | Binder |
| --- | --- |
| binds | B11 |
| binds | B12 |
| binds | B13 |
| binds | B2 |
| binds | B6 |

biological target: T4, human PSMA (human, UniProt Q04609 1-750); assay: flow cytometry, LNCaP cells highly expressing human PSMA
T4 construct: whole, on cells; On LNCaP cells highly expressing human PSMA (Nanjing Cobioer, CBP60364); also called FOLH1; glutamate carboxypeptidase 2
T4 sequence (Q04609 whole entry): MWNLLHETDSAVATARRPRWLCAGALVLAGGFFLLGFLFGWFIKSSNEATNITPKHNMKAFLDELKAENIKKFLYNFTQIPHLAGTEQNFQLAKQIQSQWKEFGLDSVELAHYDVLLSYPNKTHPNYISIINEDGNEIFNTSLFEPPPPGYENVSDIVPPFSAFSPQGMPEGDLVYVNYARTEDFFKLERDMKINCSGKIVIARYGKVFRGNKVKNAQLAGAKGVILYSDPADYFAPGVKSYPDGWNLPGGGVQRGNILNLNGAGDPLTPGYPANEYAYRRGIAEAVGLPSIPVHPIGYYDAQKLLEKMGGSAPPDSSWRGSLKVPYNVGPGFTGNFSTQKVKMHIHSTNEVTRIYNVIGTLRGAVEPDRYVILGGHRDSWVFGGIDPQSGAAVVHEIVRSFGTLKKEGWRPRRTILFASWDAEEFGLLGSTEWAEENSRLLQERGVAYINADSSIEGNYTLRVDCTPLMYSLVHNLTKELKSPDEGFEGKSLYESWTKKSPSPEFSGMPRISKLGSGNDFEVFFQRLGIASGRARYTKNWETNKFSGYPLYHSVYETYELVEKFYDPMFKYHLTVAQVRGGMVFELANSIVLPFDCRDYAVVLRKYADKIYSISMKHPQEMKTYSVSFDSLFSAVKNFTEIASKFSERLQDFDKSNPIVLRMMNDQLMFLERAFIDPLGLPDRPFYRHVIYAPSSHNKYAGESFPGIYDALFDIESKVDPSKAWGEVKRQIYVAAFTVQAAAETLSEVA

| binding result | Binder |
| --- | --- |
| binds | B14 |
| binds | B11 |
| binds | B12 |
| binds | B10 |
| binds | B13 |
